From patent US20160272683A1 (Novo Nordisk, published 2016)
* marks the point of attachment. C18 diacid = O=C(O)CCCCCCCCCCCCCCCCC(=O)*

T1: human calcitonin receptor (human, UniProt P30988 25-474)
T1 sequence (looked up): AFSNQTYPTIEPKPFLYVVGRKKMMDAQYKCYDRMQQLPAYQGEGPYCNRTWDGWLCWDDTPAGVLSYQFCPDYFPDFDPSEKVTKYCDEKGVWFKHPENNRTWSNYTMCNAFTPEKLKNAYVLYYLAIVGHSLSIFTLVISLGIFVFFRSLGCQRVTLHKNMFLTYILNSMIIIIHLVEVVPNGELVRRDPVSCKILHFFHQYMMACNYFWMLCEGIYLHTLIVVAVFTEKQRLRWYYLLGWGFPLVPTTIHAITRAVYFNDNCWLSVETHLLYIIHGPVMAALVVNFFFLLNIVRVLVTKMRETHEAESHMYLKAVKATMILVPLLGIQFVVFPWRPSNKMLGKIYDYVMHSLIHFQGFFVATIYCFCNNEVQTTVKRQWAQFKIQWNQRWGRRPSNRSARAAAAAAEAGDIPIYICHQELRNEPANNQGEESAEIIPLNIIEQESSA

T2: human amylin 3(a) receptor (human calcitonin receptor co-expressed with RAMP-3) (human, UniProt P30988 25-474; O60896 24-148, limits assumed)
T2 sequence (looked up) 1: T1 sequence (looked up)
T2 sequence (looked up) 2: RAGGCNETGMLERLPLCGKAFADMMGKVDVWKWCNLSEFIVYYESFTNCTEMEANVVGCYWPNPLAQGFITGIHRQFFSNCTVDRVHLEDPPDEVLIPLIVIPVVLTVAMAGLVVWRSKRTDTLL

B1: [N-terminal(C18 diacid), 3P, 9V]mimylin (peptide)
peptide: {C18 diacid}-EAPELSTAVLGRLSAELHELATLPRTETGPESP-NH2
SMILES: CC(C)C[C@H](NC(=O)[C@H](CCC(=O)O)NC(=O)[C@H](Cc1c[nH]cn1)NC(=O)[C@H](CC(C)C)NC(=O)[C@H](CCC(=O)O)NC(=O)[C@H](C)NC(=O)[C@H](CO)NC(=O)[C@H](CC(C)C)NC(=O)[C@H](CCCNC(=N)N)NC(=O)CNC(=O)[C@H](CC(C)C)NC(=O)[C@@H](NC(=O)[C@H](C)NC(=O)[C@@H](NC(=O)[C@H](CO)NC(=O)[C@H](CC(C)C)NC(=O)[C@H](CCC(=O)O)NC(=O)[C@@H]1CCCN1C(=O)[C@H](C)NC(=O)[C@H](CCC(=O)O)NC(=O)CCCCCCCCCCCCCCCCC(=O)O)[C@@H](C)O)C(C)C)C(=O)N[C@@H](C)C(=O)N[C@H](C(=O)N[C@@H](CC(C)C)C(=O)N1CCC[C@H]1C(=O)N[C@@H](CCCNC(=N)N)C(=O)N[C@H](C(=O)N[C@@H](CCC(=O)O)C(=O)N[C@H](C(=O)NCC(=O)N1CCC[C@H]1C(=O)N[C@@H](CCC(=O)O)C(=O)N[C@@H](CO)C(=O)N1CCC[C@H]1C(N)=O)[C@@H](C)O)[C@@H](C)O)[C@@H](C)O
B2: [N-terminal(C18 diacid), 9V, 18A]mimylin (peptide)
peptide: {C18 diacid}-EASELSTAVLGRLSAELAELATLPRTETGPESP-NH2
SMILES: CC(C)C[C@H](NC(=O)[C@H](CCC(=O)O)NC(=O)[C@H](C)NC(=O)[C@H](CO)NC(=O)[C@H](CC(C)C)NC(=O)[C@H](CCCNC(=N)N)NC(=O)CNC(=O)[C@H](CC(C)C)NC(=O)[C@@H](NC(=O)[C@H](C)NC(=O)[C@@H](NC(=O)[C@H](CO)NC(=O)[C@H](CC(C)C)NC(=O)[C@H](CCC(=O)O)NC(=O)[C@H](CO)NC(=O)[C@H](C)NC(=O)[C@H](CCC(=O)O)NC(=O)CCCCCCCCCCCCCCCCC(=O)O)[C@@H](C)O)C(C)C)C(=O)N[C@@H](C)C(=O)N[C@@H](CCC(=O)O)C(=O)N[C@@H](CC(C)C)C(=O)N[C@@H](C)C(=O)N[C@H](C(=O)N[C@@H](CC(C)C)C(=O)N1CCC[C@H]1C(=O)N[C@@H](CCCNC(=N)N)C(=O)N[C@H](C(=O)N[C@@H](CCC(=O)O)C(=O)N[C@H](C(=O)NCC(=O)N1CCC[C@H]1C(=O)N[C@@H](CCC(=O)O)C(=O)N[C@@H](CO)C(=O)N1CCC[C@H]1C(N)=O)[C@@H](C)O)[C@@H](C)O)[C@@H](C)O
B3: [N-terminal(C18 diacid), 4P, 9V]mimylin (peptide)
peptide: {C18 diacid}-EASPLSTAVLGRLSAELHELATLPRTETGPESP-NH2
SMILES: CC(C)C[C@H](NC(=O)[C@H](CCC(=O)O)NC(=O)[C@H](Cc1c[nH]cn1)NC(=O)[C@H](CC(C)C)NC(=O)[C@H](CCC(=O)O)NC(=O)[C@H](C)NC(=O)[C@H](CO)NC(=O)[C@H](CC(C)C)NC(=O)[C@H](CCCNC(=N)N)NC(=O)CNC(=O)[C@H](CC(C)C)NC(=O)[C@@H](NC(=O)[C@H](C)NC(=O)[C@@H](NC(=O)[C@H](CO)NC(=O)[C@H](CC(C)C)NC(=O)[C@@H]1CCCN1C(=O)[C@H](CO)NC(=O)[C@H](C)NC(=O)[C@H](CCC(=O)O)NC(=O)CCCCCCCCCCCCCCCCC(=O)O)[C@@H](C)O)C(C)C)C(=O)N[C@@H](C)C(=O)N[C@H](C(=O)N[C@@H](CC(C)C)C(=O)N1CCC[C@H]1C(=O)N[C@@H](CCCNC(=N)N)C(=O)N[C@H](C(=O)N[C@@H](CCC(=O)O)C(=O)N[C@H](C(=O)NCC(=O)N1CCC[C@H]1C(=O)N[C@@H](CCC(=O)O)C(=O)N[C@@H](CO)C(=O)N1CCC[C@H]1C(N)=O)[C@@H](C)O)[C@@H](C)O)[C@@H](C)O
B4: [N-terminal(C18 diacid), 9V, 25P]mimylin (peptide)
peptide: {C18 diacid}-EASELSTAVLGRLSAELHELATLPPTETGPESP-NH2
SMILES: CC(C)C[C@H](NC(=O)[C@H](CCC(=O)O)NC(=O)[C@H](Cc1c[nH]cn1)NC(=O)[C@H](CC(C)C)NC(=O)[C@H](CCC(=O)O)NC(=O)[C@H](C)NC(=O)[C@H](CO)NC(=O)[C@H](CC(C)C)NC(=O)[C@H](CCCNC(=N)N)NC(=O)CNC(=O)[C@H](CC(C)C)NC(=O)[C@@H](NC(=O)[C@H](C)NC(=O)[C@@H](NC(=O)[C@H](CO)NC(=O)[C@H](CC(C)C)NC(=O)[C@H](CCC(=O)O)NC(=O)[C@H](CO)NC(=O)[C@H](C)NC(=O)[C@H](CCC(=O)O)NC(=O)CCCCCCCCCCCCCCCCC(=O)O)[C@@H](C)O)C(C)C)C(=O)N[C@@H](C)C(=O)N[C@H](C(=O)N[C@@H](CC(C)C)C(=O)N1CCC[C@H]1C(=O)N1CCC[C@H]1C(=O)N[C@H](C(=O)N[C@@H](CCC(=O)O)C(=O)N[C@H](C(=O)NCC(=O)N1CCC[C@H]1C(=O)N[C@@H](CCC(=O)O)C(=O)N[C@@H](CO)C(=O)N1CCC[C@H]1C(N)=O)[C@@H](C)O)[C@@H](C)O)[C@@H](C)O
B5: [N-terminal(C18 diacid), 9V, 28P]mimylin (peptide)
peptide: {C18 diacid}-EASELSTAVLGRLSAELHELATLPRTEPGPESP-NH2
SMILES: CC(C)C[C@H](NC(=O)[C@H](CCC(=O)O)NC(=O)[C@H](Cc1c[nH]cn1)NC(=O)[C@H](CC(C)C)NC(=O)[C@H](CCC(=O)O)NC(=O)[C@H](C)NC(=O)[C@H](CO)NC(=O)[C@H](CC(C)C)NC(=O)[C@H](CCCNC(=N)N)NC(=O)CNC(=O)[C@H](CC(C)C)NC(=O)[C@@H](NC(=O)[C@H](C)NC(=O)[C@@H](NC(=O)[C@H](CO)NC(=O)[C@H](CC(C)C)NC(=O)[C@H](CCC(=O)O)NC(=O)[C@H](CO)NC(=O)[C@H](C)NC(=O)[C@H](CCC(=O)O)NC(=O)CCCCCCCCCCCCCCCCC(=O)O)[C@@H](C)O)C(C)C)C(=O)N[C@@H](C)C(=O)N[C@H](C(=O)N[C@@H](CC(C)C)C(=O)N1CCC[C@H]1C(=O)N[C@@H](CCCNC(=N)N)C(=O)N[C@H](C(=O)N[C@@H](CCC(=O)O)C(=O)N1CCC[C@H]1C(=O)NCC(=O)N1CCC[C@H]1C(=O)N[C@@H](CCC(=O)O)C(=O)N[C@@H](CO)C(=O)N1CCC[C@H]1C(N)=O)[C@@H](C)O)[C@@H](C)O
B6: [N-terminal(C18 diacid), 9L, 10A]mimylin (peptide)
peptide: {C18 diacid}-EASELSTALAGRLSAELHELATLPRTETGPESP-NH2
SMILES: CC(C)C[C@H](NC(=O)[C@H](C)NC(=O)[C@@H](NC(=O)[C@H](CO)NC(=O)[C@H](CC(C)C)NC(=O)[C@H](CCC(=O)O)NC(=O)[C@H](CO)NC(=O)[C@H](C)NC(=O)[C@H](CCC(=O)O)NC(=O)CCCCCCCCCCCCCCCCC(=O)O)[C@@H](C)O)C(=O)N[C@@H](C)C(=O)NCC(=O)N[C@@H](CCCNC(=N)N)C(=O)N[C@@H](CC(C)C)C(=O)N[C@@H](CO)C(=O)N[C@@H](C)C(=O)N[C@@H](CCC(=O)O)C(=O)N[C@@H](CC(C)C)C(=O)N[C@@H](Cc1c[nH]cn1)C(=O)N[C@@H](CCC(=O)O)C(=O)N[C@@H](CC(C)C)C(=O)N[C@@H](C)C(=O)N[C@H](C(=O)N[C@@H](CC(C)C)C(=O)N1CCC[C@H]1C(=O)N[C@@H](CCCNC(=N)N)C(=O)N[C@H](C(=O)N[C@@H](CCC(=O)O)C(=O)N[C@H](C(=O)NCC(=O)N1CCC[C@H]1C(=O)N[C@@H](CCC(=O)O)C(=O)N[C@@H](CO)C(=O)N1CCC[C@H]1C(N)=O)[C@@H](C)O)[C@@H](C)O)[C@@H](C)O
B7: [N-terminal(C18 diacid), 2P, 9V]mimylin (peptide)
peptide: {C18 diacid}-EPSELSTAVLGRLSAELHELATLPRTETGPESP-NH2
SMILES: CC(C)C[C@H](NC(=O)[C@H](CCC(=O)O)NC(=O)[C@H](Cc1c[nH]cn1)NC(=O)[C@H](CC(C)C)NC(=O)[C@H](CCC(=O)O)NC(=O)[C@H](C)NC(=O)[C@H](CO)NC(=O)[C@H](CC(C)C)NC(=O)[C@H](CCCNC(=N)N)NC(=O)CNC(=O)[C@H](CC(C)C)NC(=O)[C@@H](NC(=O)[C@H](C)NC(=O)[C@@H](NC(=O)[C@H](CO)NC(=O)[C@H](CC(C)C)NC(=O)[C@H](CCC(=O)O)NC(=O)[C@H](CO)NC(=O)[C@@H]1CCCN1C(=O)[C@H](CCC(=O)O)NC(=O)CCCCCCCCCCCCCCCCC(=O)O)[C@@H](C)O)C(C)C)C(=O)N[C@@H](C)C(=O)N[C@H](C(=O)N[C@@H](CC(C)C)C(=O)N1CCC[C@H]1C(=O)N[C@@H](CCCNC(=N)N)C(=O)N[C@H](C(=O)N[C@@H](CCC(=O)O)C(=O)N[C@H](C(=O)NCC(=O)N1CCC[C@H]1C(=O)N[C@@H](CCC(=O)O)C(=O)N[C@@H](CO)C(=O)N1CCC[C@H]1C(N)=O)[C@@H](C)O)[C@@H](C)O)[C@@H](C)O

What follows are binders tested against T1, human calcitonin receptor (assay: cell-based or functional assay).

Binder | hCTR funct. EC50 (pM)
B1 | 7 pM
B2 | 7 pM
B3 | 7 pM
B4 | 6 pM
B5 | 12 pM
B6 | 4 pM
B7 | 7 pM

What follows are binders tested against T2, human amylin 3(a) receptor (human …) (assay: cell-based or functional assay).

Binder | hAmylin-R funct. EC50 (pM)
B1 | 10 pM
B2 | 8 pM
B3 | 14 pM
B4 | 14 pM
B5 | 31 pM
B6 | 8 pM
B7 | 8 pM
